Reference: publication PMC5432305, “Fungal lectin MpL enables entry of protein drugs into cancer cells and their subcellular targeting” (Oncotarget, 2017)

Tests used:
Papain [1] = biological target: T1, Papain (UniProt P00784 134-345)
T1 chain: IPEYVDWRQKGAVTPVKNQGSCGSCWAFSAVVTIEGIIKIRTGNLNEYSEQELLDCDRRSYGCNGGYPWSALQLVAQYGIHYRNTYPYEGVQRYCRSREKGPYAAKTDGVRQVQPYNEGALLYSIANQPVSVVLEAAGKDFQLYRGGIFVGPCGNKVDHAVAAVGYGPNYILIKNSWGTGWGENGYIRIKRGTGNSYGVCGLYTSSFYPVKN

Papain [2] = biological target: T2, Papain (UniProt P00784 134-345); experiment: enzyme inhibition kinetics (Ki, Henderson equation for tight binding competitive inhibitors); papain 2.6 nM, different concentrations of inhibitor proteins, 0.1 M MES, 5 mM DTT, 0.1 mM Z-Phe-Arg-AMC, pH 6.5, 25°C, fluorescence 370/460 nm; conditions: both partners purified
T2 construct: also called cysteine peptidase papain; cysteine protease papain; source: bought: Sigma
T2 sequence (looked up): T1 chain

B1: CysC-MpL fusion protein (cystatin C, (GGGGS)3 linker, MpL) (other)
chain: SSPGKPPRLVGGPMDASVEEEGVRRALDFAVGEYNKASNDMYHSRALQVVRARKQIVAGVNYFLDVELGRTTCTKTQPNLDNCPFHDQPHLKRKAFCSFQIYAVPWQGTMTLSKSTCQDAGGGGSGGGGSGGGGSMSTQVSSGQTYKITNVKAGTVIDLSGEDNKSIIGYPYHSGKNQQWTFNWTGKAWTLRSASSGSYLGIEGTPADGTRLVAVNDPFEWHIWRDEANENAFRIFVPFTNYNLDLSGYGDTTPGTPVQLWWTWEGLHQTWTIDRP
modifications: Cystatin C without its 26-residue signal peptide (stated for unlinked CysC, assumed for the fusion). (GGGGS)3 linker kept because it joins the two domains. Vector start Met not added; MpL Met1 may be absent in the fusion. Dimeric forms were observed; copies given per chain.
**Q.** Which Ki (Papain [1]) does the source give for B1 here?
**A.** 41 nM

B2: Recombinant cystatin C (CysC) (natural protein, human, UniProt P01034 27-146, looked up)
chain: SSPGKPPRLVGGPMDASVEEEGVRRALDFAVGEYNKASNDMYHSRALQVVRARKQIVAGVNYFLDVELGRTTCTKTQPNLDNCPFHDQPHLKRKAFCSFQIYAVPWQGTMTLSKSTCQDA
notes: Human cystatin C without its signal peptide of 26 amino acids; It was cloned through NdeI and BamHI into pET11a, so an initiator methionine is likely; also called unlinked CysC
**Q.** For B2, which Ki (Papain [1]) is on record?
**A.** 85.5 nM

**Q.** Does B2 bind (Papain [2])?
**A.** binds

B3: Recombinant clitocypin (Clt) (natural protein, UniProt Q3Y9I6 1-152, looked up)
chain: MASLEDGTYRLRAVTTSNPDPGVGGEYATVEGARQPVKAEPSTPPFFERQIWQVTRNSDGQSTIKYQGLNAPFEYGFSYDQLEQNAPVIAGDPKEYILQLVPSTTDVYIIRAPIQRVGVDVEVGVQGNNLVYKFFPVDGSGGDRPAWRFTRE
notes: also called rClt; unlinked Clt; source: E. coli, purified as described [19]
**Q.** B3 was tested. Which Ki (Papain [1]) did it give?
**A.** 60.8 nM

**Q.** Does B3 bind (Papain [2])?
**A.** binds

B4: Clt-MpL fusion protein (clitocypin, (GGGGS)3 linker, MpL) (other)
chain: MASLEDGTYRLRAVTTSNPDPGVGGEYATVEGARQPVKAEPSTPPFFERQIWQVTRNSDGQSTIKYQGLNAPFEYGFSYDQLEQNAPVIAGDPKEYILQLVPSTTDVYIIRAPIQRVGVDVEVGVQGNNLVYKFFPVDGSGGDRPAWRFTREGGGGSGGGGSGGGGSMSTQVSSGQTYKITNVKAGTVIDLSGEDNKSIIGYPYHSGKNQQWTFNWTGKAWTLRSASSGSYLGIEGTPADGTRLVAVNDPFEWHIWRDEANENAFRIFVPFTNYNLDLSGYGDTTPGTPVQLWWTWEGLHQTWTIDRP
modifications: Clitocypin species taken from the candidate for the printed accession Q3Y9I6; MpL species is printed. (GGGGS)3 linker kept because it joins the two domains. MpL Met1 may be absent in the fusion. Dimeric forms were observed; copies given per chain.
**Q.** Which Ki (Papain [1]) does the source give for B4 here?
**A.** 161 nM
